Measured values as given in paper PMC7226468, “Insight into the RssB-Mediated Recognition and Delivery of σ^s to the AAA+ Protease, ClpXP” (Biomolecules, 2020).

T1: RssB (residues 1–337), untagged (E. coli, UniProt P0AEV1 1-337)
T1 sequence (looked up): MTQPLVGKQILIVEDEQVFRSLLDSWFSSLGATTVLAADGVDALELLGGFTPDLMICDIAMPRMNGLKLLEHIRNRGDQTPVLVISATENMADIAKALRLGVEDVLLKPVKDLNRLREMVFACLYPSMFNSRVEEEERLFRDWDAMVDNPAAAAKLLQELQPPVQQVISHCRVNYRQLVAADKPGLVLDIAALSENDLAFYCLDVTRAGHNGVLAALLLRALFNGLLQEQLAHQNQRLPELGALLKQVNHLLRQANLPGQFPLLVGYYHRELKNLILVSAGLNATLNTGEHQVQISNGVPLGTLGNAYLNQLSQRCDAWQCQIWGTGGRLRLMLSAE


Columns and labels:
[1] = biological target: the molecule itself; assay: cross-linking; 0.005% (v/v) glutaraldehyde, 35 μg of each protein, 20 mM Hepes-KOH pH 7.5, 140 mM NaCl, 10 mM MgCl2, time course; SDS-PAGE and immunodecoration (anti-His, anti-RssB or anti-σS antisera)
[2] = biological target: T1, RssB (residues 1–337), untagged; assay: cell-based or functional assay

| Binder | stoichiometry N [1] | half-life of σS in RssB-mediated turnover by 1.2 µM ClpXP with 2, 5 and 15 µM SspB added (from ~2.5 min without SspB) [2] [min] |
| --- | --- | --- |
| His6-tagged zinc binding domain (ZBD) of E. coli ClpX (domain or fragment, UniProt P0A6H1 1-60, looked up, Dimer by glutaraldehyde cross-linking; also called ClpXZBD; ecClpXZBD; source: purified ("Pure ecClpXZBD")) MTDKRKDGSGKLLYCSFCGKSQHEVRKLIAGPSVYICDECVDLCNDIIREEIKEVAPHRE | 2 | ~23 |
| RssBN (residues 1–128), untagged (domain or fragment, E. coli, UniProt P0AEV1 1-128, looked up, RssB, E. coli, N-terminal receiver domain, residues 1-128; also called N-terminal domain of RssB; REC domain; source: Ub-fusion system, purified (IMAC, SEC)) MTQPLVGKQILIVEDEQVFRSLLDSWFSSLGATTVLAADGVDALELLGGFTPDLMICDIAMPRMNGLKLLEHIRNRGDQTPVLVISATENMADIAKALRLGVEDVLLKPVKDLNRLREMVFACLYPSM | 2 |  |
| RssBC (residues 131–337), untagged (domain or fragment, E. coli, UniProt P0AEV1 131-337, looked up, RssB, E. coli, C-terminal effector domain, residues 131-337; also called C-terminal domain of RssB; effector domain; source: Ub-fusion system, purified (IMAC, SEC)) SRVEEEERLFRDWDAMVDNPAAAAKLLQELQPPVQQVISHCRVNYRQLVAADKPGLVLDIAALSENDLAFYCLDVTRAGHNGVLAALLLRALFNGLLQEQLAHQNQRLPELGALLKQVNHLLRQANLPGQFPLLVGYYHRELKNLILVSAGLNATLNTGEHQVQISNGVPLGTLGNAYLNQLSQRCDAWQCQIWGTGGRLRLMLSAE | 2 |  |
